Article PMC5543122, “Structural basis of Notch O-glucosylation and O–xylosylation by mammalian protein–O-glucosyltransferase 1 (POGLUT1)” (Nature Communications, 2017)

Columns and labels:
[1] = biological target: human Protein O-glucosyltransferase 1 (POGLUT1), residues 29-385 (human) (UniProt Q8NBL1)
[2] = biological target: Drosophila Rumi, residues 39-406 (Drosophila) (UniProt Q8T045)
Sequence of UniProt Q8T045 (Q8T045 39-406): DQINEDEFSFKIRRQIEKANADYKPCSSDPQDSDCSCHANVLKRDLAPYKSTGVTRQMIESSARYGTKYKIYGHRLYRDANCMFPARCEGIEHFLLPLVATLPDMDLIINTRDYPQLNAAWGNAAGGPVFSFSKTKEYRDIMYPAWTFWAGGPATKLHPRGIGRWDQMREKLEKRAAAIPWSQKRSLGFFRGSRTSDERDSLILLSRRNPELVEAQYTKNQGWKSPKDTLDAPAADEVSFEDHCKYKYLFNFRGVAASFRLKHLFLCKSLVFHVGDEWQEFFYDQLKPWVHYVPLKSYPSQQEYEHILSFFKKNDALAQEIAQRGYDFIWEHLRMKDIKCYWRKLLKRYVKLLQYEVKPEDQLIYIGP

Sequence of UniProt Q8NBL1 (Q8NBL1 29-385): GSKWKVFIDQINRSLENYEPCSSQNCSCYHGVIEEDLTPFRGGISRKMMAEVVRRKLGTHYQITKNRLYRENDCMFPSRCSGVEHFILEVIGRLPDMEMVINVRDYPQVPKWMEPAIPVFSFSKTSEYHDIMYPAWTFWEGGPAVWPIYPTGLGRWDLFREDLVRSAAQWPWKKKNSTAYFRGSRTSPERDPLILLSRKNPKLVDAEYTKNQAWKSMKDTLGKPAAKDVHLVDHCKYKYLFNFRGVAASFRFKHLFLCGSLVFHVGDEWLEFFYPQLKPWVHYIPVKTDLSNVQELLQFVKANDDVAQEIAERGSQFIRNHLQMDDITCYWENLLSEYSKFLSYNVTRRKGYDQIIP

| K M of the EGF-like domain (MBP fusion) for glucosylation, 2.5 mM UDP-glucose, coupled spectrophotometric assay, 37 °C [1] [µM] | K M of the EGF-like domain (MBP fusion) for glucosylation, 2.5 mM UDP-glucose, coupled spectrophotometric assay, 37 °C [2] [µM] | Substance |
| --- | --- | --- |
| 1000 | 1000 | human Notch1 EGF-like domain 12 with a 6-residue C2C3 loop, MBP fusion (from UniProt P46531 452-488) (domain or fragment) |
| 1000 | 1000 | human Notch1 EGF-like domain 12 with a 7-residue C2C3 loop, MBP fusion (from UniProt P46531 452-488) (domain or fragment) |
| 155 | 160 | human Notch1 EGF-like domain 12 with a 4-residue C2C3 loop, MBP fusion (from UniProt P46531 452-488) (domain or fragment) |
